Reference: patent US20050123549A1 (IMMUNOGEN, published 2005)

Legend:
[1] = molecular target: T1, Muc1 mucin carrying the CA6 sialoglycotope (human, UniProt P15941 24-1255, sialylated O-linked carbohydrate carrying the CA6 epitope; positions not stated); test: flow cytometry on CaOV3 cells, apparent Kd
T1 construct: whole, on cells; Target of DS6 on CA6-positive human cell lines (flow cytometry) and in their lysates (dot blots, immunoprecipitation); also called CA6 antigen; DS6 antigen

[2] = molecular target: T1, Muc1 mucin carrying the CA6 …; test: flow cytometry on KB cells, apparent Kd
[3] = molecular target: T1, Muc1 mucin carrying the CA6 …; test: flow cytometry on ZR-75-1 cells, apparent Kd
Description: (§1) Human cell lines were obtained from the American Type Culture Collection (ATCC) with the exception of OVCAR5 (Kearse et al., Int. J. Cancer 88(6):866-872 (2000)), OVCAR8 and IGROV1 cells (M. Seiden, Massachusetts General Hospital). All cells were grown in RPMI 1640 supplemented with 4 mM L-glutamine, 50 U/ml penicillin, 50 μg/ml streptomycin (Cambrex Bio Science, Rockland, Me.) and 10% v/v fetal bovine serum (Atlas Biologicals, Fort Collins, Colo.), referred hereafter as culture media. Cells were maintained in a 37° C., 5% CO₂ humidified incubator.
(§2) Cells ([…]) were incubated, on ice for 3-4 h, with serially diluted concentrations of the DS6 antibody prepared in FACS buffer (2% goat serum, RPMI) into 96-well plates. The cells were spun down in a table top centrifuge at 1500 rpm for 5 min at 4° C. After removing the media, the wells were then refilled with 150 μl of FACS buffer. The wash step was then repeated. FITC-labeled goat anti-mouse IgG (Jackson Immunoresearch) was diluted 1:100 to FACS buffer and incubated with the cells for 1 h on ice. The plate was covered in foil to prevent photobleaching of the signal. After two washes, the cells were fixed with 1% formaldehyde and analyzed on a flow cytometer.

[4] = molecular target: T1, Muc1 mucin carrying the CA6 …; test: flow cytometry on KB cells, apparent Kd; remark: listed apart in the source
[5] = molecular target: T1, Muc1 mucin carrying the CA6 …; test: flow cytometry on ZR-75-1 cells, apparent Kd; remark: listed apart in the source
[6] = molecular target: T1, Muc1 mucin carrying the CA6 …; test: flow cytometry on PC-3 cells, apparent Kd
Description: as §1, §2

[7] = molecular target: T1, Muc1 mucin carrying the CA6 …; test: flow cytometry on MDA-MB-468 cells, apparent Kd
Description: as §1, §2

[8] = molecular target: T1, Muc1 mucin carrying the CA6 …; test: flow cytometry on SU.86.86 cells, apparent Kd
Description: as §2

[9] = molecular target: T1, Muc1 mucin carrying the CA6 …; test: flow cytometry on HeLa cells, apparent Kd
[10] = molecular target: T1, Muc1 mucin carrying the CA6 …; test: flow cytometry on WISH cells, apparent Kd
[11] = molecular target: T1, Muc1 mucin carrying the CA6 …; test: flow cytometry on MCF-7 cells, apparent Kd
Description: as §1, §2

[12] = molecular target: T1, Muc1 mucin carrying the CA6 …; test: flow cytometry on BT-483 cells, apparent Kd
Description: as §2

[13] = molecular target: T1, Muc1 mucin carrying the CA6 …; test: flow cytometry on WISH cells, apparent Kd; remark: listed apart in the source
Description: as §1, §2

[14] = molecular target: T1, Muc1 mucin carrying the CA6 …; test: flow cytometry on BT-549 cells, apparent Kd
Description: as §1, §2

[15] = molecular target: T1, Muc1 mucin carrying the CA6 …; test: flow cytometry on KB cells, apparent Kd; remark: listed apart in the source
[16] = molecular target: T1, Muc1 mucin carrying the CA6 …; test: flow cytometry on WISH cells, direct binding
[17] = molecular target: T1, Muc1 mucin carrying the CA6 …; test: flow cytometry on T98G cells, apparent Kd
Description: as §2

[18] = molecular target: T1, Muc1 mucin carrying the CA6 …; test: flow cytometry on SW1990 cells, apparent Kd
Description: as §1, §2

[19] = molecular target: T1, Muc1 mucin carrying the CA6 …; test: flow cytometry on TOV-21G cells, apparent Kd
[20] = molecular target: T1, Muc1 mucin carrying the CA6 …; test: flow cytometry on HeLa cells
[21] = molecular target: T1, Muc1 mucin carrying the CA6 …; test: flow cytometry on T-47D cells, apparent Kd
Description: as §2

B1: murine DS6 anti-CA6 monoclonal antibody (antibody, IgG1, V domains shown)
VH: QAYLQQSGAELVRSGASVKMSCKASGYTFTSYNMHWVKQTPGQGLEWIGYIYPGNGATNYNQKFKGKATLTADPSSSTAYMQISSLTSEDSAVYFCARGDSVPFAYWGQGTLVTVSA
VL: QIVLTQSPAIMSASPGEKVTITCSAHSSVSFMHWFQQKPGTSPKLWIYSTSSLASGVPARFGGSGSGTSYSLTISRMEAEDAATYYCQQRSSFPLTFGAGTKLELKR
notes: Whole murine monoclonal IgG from the DS6 hybridoma (ATCC PTA-4449); the 3' heavy chain cloning primer was BamIgG1 and the light chain primer was kappa; also called DS6 antibody; muDS6
With B1 the Kd [1] was 5.48 nM, the Kd [2] was 1.11 nM and the Kd [3] was 4.3 nM. For the same binder, the Kd [4] was 1.11 nM, the Kd [5] was 4.3 nM and the Kd [6] was 0.136 nM. For the same binder, the Kd [7] was 0.813 nM, the Kd [8] was 1.04 nM and the Kd [9] was 0.694 nM. The Kd [10] was 2.38 nM, the Kd [11] was 2.89 nM and the Kd [12] was 13.7 nM. It also gave a Kd [13] of 2.38 nM, a Kd [14] of 1.05 nM and a Kd [15] of 0.111 nM. It also gave a Kd [16] of 1.93 nM, a Kd [17] of 0.177 nM and a Kd [18] of 0.368 nM. It also gave a Kd [19] of 0.307 nM, a Kd [20] of 0.62 nM and a Kd [21] of 3.42 nM.
